The target in test [1] is Human V95E HSC70 (HSPA8) (human) (UniProt P11142).
The target in test [2] is Human WT HSC70 (HSPA8) (human) (UniProt P11142).

Take “DnaJB4 (from UniProt Q9UDY4 1-337) (natural protein)”: the values for the pseudo-Km of DnaJB4-stimulated ATPase activity (malachite green assay, 1 μM HSC70 titrated with DnaJB4, 37°C, Michaelis-Menten fit) in test [1] and in test [2] were 0.088 µM and 0.092 µM, respectively.

B1: BAG1 (natural protein)
chain: MAQRGGARRPRGDRERLGSRLRALRPGREPRQSEPPAQRGPPPSGRPPARSTASGHDRPTRGAAAGARRPRMKKKTRRRSTRSEELTRSEELTLSEEATWSEEATQSEEATQGEEMNRSQEVTRDEESTRSEEVTREEMAAAGLTVTVTHSNEKHDLHVTSQQGSSEPVVQDLAQVVEEVIGVPQSFQKLIFKGKSLKEMETPLSALGIQDGCRVMLIGKKNSPQEEVELKKLKHLEKSVEKIADQLEELNKELTGIQQGFLPKDLQAEALCKLDRRVKATIEQFMKILEEIDTLILPENFKDSRLKRKGLVKKVQAFLAECDTVEQNICQETERLQSTNFALAE
As to B1, the stimulation of ATPase activity (malachite green assay, normalised percent) as BAG1 is titrated into HSC70 (1 μM) and DnaJB4 (0.1 μM); value at the highest concentration tested in test [1] is 25%.
